We go through three molecules from article PMC4017264 (Molecular Cell, 2014).

Where “and” joins values, the source holds several entries; their conditions need not be identical. Identical values can stand only once. No end group written: not given here. *: point of attachment. FITC = O=C1OC2(c3ccc(O)cc3Oc3cc(O)ccc32)c2ccc(NC(=S)*)cc21; Ahx = NCCCCCC(=O)O

For test [1], the target named is T1, HOIP extended PUB domain (aa 1–184) (UniProt Q96EP0 1-184).
T1 construct: 15N- or 13C,15N-labelled for NMR; Construct details are in the Supplemental Experimental Procedures; also called HOIP PUB domain
T1 sequence (looked up): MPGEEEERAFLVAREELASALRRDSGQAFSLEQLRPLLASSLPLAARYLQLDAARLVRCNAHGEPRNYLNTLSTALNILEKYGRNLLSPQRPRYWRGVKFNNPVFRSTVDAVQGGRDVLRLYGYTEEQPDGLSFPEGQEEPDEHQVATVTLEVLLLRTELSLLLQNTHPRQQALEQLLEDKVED
Put plainly: fluorescence polarisation; competition assay: p97 PIM peptide competes with the OTULIN PIM for the HOIP PIM pocket. As to conditions: both partners purified. (In general: In fluorescence polarisation assays a small probe gives low polarisation when free and higher when bound to something large.)

Test [2] deals with HOIP PUB domain (aa 1–184) N85A (UniProt Q96EP0 1-184, N85A). Put plainly: FP.
Test [3] has as its target HOIP PUB domain (aa 1–184) Y82F (UniProt Q96EP0 1-184, Y82F). Put plainly: FP.
The next test has as its target T2, HOIP PUB domain N101R (UniProt Q96EP0 1-184, N101R).
T2 construct: HOIP PUB domain with N101R
T2 sequence (looked up): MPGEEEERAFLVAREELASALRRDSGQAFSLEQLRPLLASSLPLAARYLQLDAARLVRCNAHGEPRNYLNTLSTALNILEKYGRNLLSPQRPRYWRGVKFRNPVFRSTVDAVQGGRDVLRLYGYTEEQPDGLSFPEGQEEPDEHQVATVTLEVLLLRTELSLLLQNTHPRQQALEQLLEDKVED
The test is described as follows: fluorescence polarisation; serially diluted PUB domains and HOIP variants mixed with an equal volume of 100 nM FITC-Ahx-labeled peptide; one-site binding model; triplicate. As to conditions: both partners purified.

Test [4] addresses T3, HOIP PUB domain (aa 1–184) V104A (UniProt Q96EP0 1-184, V104A).
T3 sequence (looked up): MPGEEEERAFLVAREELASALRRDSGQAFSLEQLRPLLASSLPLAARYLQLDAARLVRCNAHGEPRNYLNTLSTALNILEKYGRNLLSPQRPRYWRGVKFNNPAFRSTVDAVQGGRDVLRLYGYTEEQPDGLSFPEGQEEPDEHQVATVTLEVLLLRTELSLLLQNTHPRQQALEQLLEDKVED
Described as above. Particulars: both partners purified.

Another test has as its target T4, PNGase PUB domain R55A (UniProt Q96IV0 11-109, Arg55 was mutated to Ala).
T4 construct: PNGase PUB domain with Arg55 mutated to Ala; also called PNGase mutant; Arg55 mutated to Ala
T4 sequence (looked up): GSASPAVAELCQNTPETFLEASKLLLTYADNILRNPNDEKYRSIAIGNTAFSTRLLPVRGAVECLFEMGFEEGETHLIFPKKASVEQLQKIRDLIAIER
The description is as above. As to conditions: both partners purified.

Test [5] concerns the target T5, HOIP PUB domain (aa 1–184) Y82F (UniProt Q96EP0 1-184, Y82F).
T5 sequence (looked up): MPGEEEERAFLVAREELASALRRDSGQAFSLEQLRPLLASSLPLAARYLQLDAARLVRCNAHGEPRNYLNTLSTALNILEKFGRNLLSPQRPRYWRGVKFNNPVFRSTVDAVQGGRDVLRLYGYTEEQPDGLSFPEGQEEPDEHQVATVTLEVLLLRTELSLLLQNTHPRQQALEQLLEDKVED
The test is described as above. As to conditions: both partners purified.

For test [6], the target named is T6, HOIP PUB domain (aa 1–184) N85A (UniProt Q96EP0 1-184, N85A).
T6 sequence (looked up): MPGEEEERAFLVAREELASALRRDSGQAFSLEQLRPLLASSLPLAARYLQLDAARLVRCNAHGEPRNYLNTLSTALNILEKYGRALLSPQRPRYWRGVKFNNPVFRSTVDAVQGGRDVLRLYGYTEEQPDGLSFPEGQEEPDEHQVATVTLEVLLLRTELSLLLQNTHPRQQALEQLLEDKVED
The test is described as above. As to conditions: both partners purified.

In a further test the target is T7, HOIP PUB domain K99R (UniProt Q96EP0 1-184, K99R).
T7 construct: HOIP PUB domain with K99R
T7 sequence (looked up): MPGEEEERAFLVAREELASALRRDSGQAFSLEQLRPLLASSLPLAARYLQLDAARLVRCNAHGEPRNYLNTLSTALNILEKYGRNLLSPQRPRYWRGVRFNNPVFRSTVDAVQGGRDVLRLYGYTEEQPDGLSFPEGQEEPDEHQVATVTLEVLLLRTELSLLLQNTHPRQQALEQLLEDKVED
Described as above. As to conditions: both partners purified.

In test [7] the target is T8, UBXD1 PUB domain (aa 150–264) (UniProt Q9BZV1 150-264).
T8 construct: UBXD1, PUB domain, residues 150-264; also called minimal UBXD1 PUB domain
T8 sequence (looked up): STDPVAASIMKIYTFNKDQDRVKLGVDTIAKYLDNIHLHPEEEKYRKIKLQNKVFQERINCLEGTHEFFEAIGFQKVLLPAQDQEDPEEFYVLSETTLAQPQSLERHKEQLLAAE
The test is described as above. As to conditions: both partners purified.

The target in test [8] is T1, HOIP extended PUB domain (aa 1–184). The description is as above. As to conditions: both partners purified.
The target of test [9] is T9, PNGase PUB domain (aa 11–109) (UniProt Q96IV0 11-109).
T9 construct: PNGase (peptide:N-glycanase), PUB domain, residues 11-109
T9 sequence (looked up): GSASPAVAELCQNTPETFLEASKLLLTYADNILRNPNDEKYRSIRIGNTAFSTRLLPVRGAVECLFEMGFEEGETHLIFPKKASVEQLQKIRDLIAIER
The test is described as above. Particulars: both partners purified.

The term Ki denotes the equilibrium dissociation constant of an inhibitor or competing ligand from its target. One may read the Kd as the concentration at which binding is half-saturated.

B1: unlabeled p97 PIM peptide (peptide, UniProt P55072 797-806, looked up)
peptide: TEDNDDDLYG
notes: p97 (VCP) PIM peptide; also called p97 peptide
The molecule B1 yielded a Ki in [1] of 37 µM.

B2: FITC-Ahx-labeled OTULIN PIM peptide (aa 49–67) (peptide, UniProt Q96BN8 49-67, looked up)
peptide: {FITC-Ahx}-AEHEEDMYRAADEIEKEKE
notes: OTULIN, residues 49-67, holds the EEDMYR motif (residues 52-57); also called OTULIN peptide; wild-type OTULIN PIM peptide
B2: the dissociation constant Kd in test [2] amounted to 1.04 µM; in [3] it was 9.38 µM; in the test with HOIP PUB domain N101R it was 0.1 µM; in the test with PNGase PUB domain R55A, 43 µM. The binding result (in test [4]; in [5]; in test [6]; with HOIP PUB domain K99R) was “binds” each time.

B3: FITC-Ahx-labeled p97 PIM peptide (aa 797–806) (peptide, UniProt P55072 797-806, looked up)
peptide: {FITC-Ahx}-TEDNDDDLYG
notes: p97 (VCP), C-terminal residues 797-806; also called p97 peptide; fluorescent p97 PIM peptide
With B3, the Kd with HOIP PUB domain N101R is 0.9 µM; in test [7], 12 µM; in [8] it was 7.6 µM and 6 µM; in [9], 3 µM. In addition, in the test with HOIP PUB domain K99R, the binding result is reported as “binds”.
